Assay results reported in the RNAGym collection of RNA variant scans (doi:10.7554/elife.80360).

B1: HDV Ribozyme (parent)
chain: GGCCGGCAUGGUCCCAGCCUCCUCGCUGGCGCCGGCUGGGCAACAUUCCGAGGGGACCGUCCCCUCGGUAAUGGCGAAUGGGACCCA

Variants of: B1
Experiment: self-cleavage, relative activity (ratio to wild type); higher = more cleavage; co-transcriptional

Variant	self-cleavage
C48G A70U	0.506
C48U C85U	1.14
U47C U60A	0.987
U47G G55U	1.07
U47A U72C	0.688
C48G G52A	0.86
C48G G52C	0.762
C48A U60G	0.886
C48A U60C	0.91
C48A U60A	0.918
C48A C62U	1.05
C49G C62G	0.133
C49A C64G	0.356
U46G C84A	0.554
U47G G76U	1.22
U47G U65A	0.942
C49G A51C	0.623
C49G A51G	0.688
U46C A83C	0.237
U47C G54U	1.14
C48G C57U	1.04
C48G C57A	0.798
U47A G74C	0.104
U47C G53U	0.966

Variant	self-cleavage
U46A C61A	0.8
C48U A87G	1.07
C49U C66U	0.899
C49A G80A	0.479
C48U G73C	0.422
C49A G82A	0.104
U46A C62G	0.289
U47C U69C	1.08
U47G A70C	1.22
U47G A70U	1.4
C48U G59C	1.23
C48U G74C	0.253
U47C G67A	0.923
U46A G74U	0.305
U46C C84U	0.485
U47G G73U	0.458
U47G G73A	0.852
U47G G73C	0.534
U46G A71U	0.731
U46G C49A	0.391
C48G C49A	0.808
C49A U69G	1.33
U46C G52C	0.72
C48U G55U	1.11

Variant	self-cleavage
C49A C66U	0.979
C49A G81U	0.26
U46C C62G	0.249
U46G C63U	0.813
U47C A56G	0.665
C48A C57G	1.18
U47C G52U	0.698
U46C C66A	0.849
C48A G67C	0.856
U46A G67U	0.789
C49U A78U	0.437
C48A A83U	0.465
U47A C85A	0.962
C49A G74A	0.288
C48U G54C	1.2
C48U G54U	1.02
C48G U69C	0.987
C48G U69G	0.712
U46C G81A	0.208
U47C C61U	0.872
U47G C48G	0.635
U46G C66G	0.633
U46G C66A	0.308
C48A G76U	1.03

Variant	self-cleavage
U47C U72A	0.65
U47C G74C	0.256
U47C G74U	0.633
U46G C62A	0.575
U46A G54A	0.763
U47G C84G	0.475
U47G C84A	0.965
U46A G80A	0.147
U46A G80U	0.176
U46G G52U	0.237
C49G G59A	1.11
C49G G55A	0.976
U46G A78U	0.0573
U47G C75A	0.107
U47G C75U	0.305
U46C A78C	0.0426
U46C A78G	0.554
C48U C64U	0.997
U47A C66U	1.17
U47C G59C	1.09
U47C G59U	0.95
C49A C85G	0.762
C49A G55A	0.816
C49A G55U	1.18

Variant	self-cleavage
U47C G68C	0.44
U46G G50C	0.429
C49U C58U	0.991
U46C C57G	1.04
U47A G76A	0.901
U47A G76U	0.742
U47A C57G	0.898
U47C C48G	0.804
C48U	1.01
C48G	0.988
C48A	0.989
U46C G59C	0.965
C48U U65A	0.876
U46G G73A	0.831
U46A C66A	0.727
C49A G67C	1.04
U47G C62U	0.923
U47C C49A	0.95
U46G G53U	0.262
C49U C61U	0.851
C49G G67C	1.22
U47G G74U	0.434
U47A G67C	1.12
C49G G68A	0.789

Variant	self-cleavage
C49G G68C	0.458
C48A G52U	0.974
U46C U65C	1.2
C48U A56G	0.989
U46A G73C	0.317
U46A G73A	0.554
C48A G68A	1.06
C48A G68C	0.707
C48U C84U	0.742
C48U C84A	0.958
C48A A70U	0.985
C48A C63G	0.73
C48A C63U	1.07
C48U G52C	0.847
U46G G59A	1.09
C49A G68C	0.849
C49A G68U	0.817
U47A G54C	1.01
U47A G81U	0.219
U47A G81C	0.161
C48A C84A	1.08
C48A C84U	0.819
U47C G76C	0.931
U47C G76U	0.895

Variant	self-cleavage
U47G U60A	1.33
U46G G76U	0.73
U46A C86U	0.594
U46C C48G	1.18
U46C C48A	0.89
C49A C63A	0.597
C48G U72A	0.718
U47G C86G	0.95
U47A U65G	0.931
U47A U65A	1.07
U46G C85G	0.665
C49A C84A	1.05
C49G C75A	0.185
C49U C63G	0.396
C49U C63A	1
U46G U60C	0.665
C48A G74U	0.38
C49A C86G	0.906
C48U C49G	0.982
C48U C49A	1.05
C48U C49U	0.85
U47A C64U	1.08
C49G C58A	0.764
U46G G81U	0.249

Variant	self-cleavage
U46C U47G	0.703
C48G A71G	0.962
C48G A71U	0.554
C49G G76A	1.1
C49G A83G	0.378
U47G C57A	1.22
U47G C57G	1.22
C49A A56G	1.11
U47C G55U	0.831
C49G U72C	0.332
U46G C61A	0.617
C49G U60C	0.831
C49G U60A	0.923
C49G U60G	0.762
C49G G73A	0.197
C49G G73C	0.136
U47A G52C	0.978
U47A U60A	0.851
C49U C64A	0.739
C49G C84U	0.429
U46C G82U	0.138
C49G G50C	0.587
C49G G50A	0.793
C48G C84U	0.848

Variant	self-cleavage
U46G C86G	1.01
U46A G50A	0.658
C49U G54A	1.02
C48G G50U	0.941
C49G C61G	0.618
C48U A78G	0.522
C49G C66U	0.646
U46A G82C	0
U47G A77C	0.35
C48G C66A	0.898
C48G C66U	0.868
C49A A71C	0.643
C49U C84G	0.364
C48A A51U	1.1
C48G A56U	1.03
C48G A56C	0.875
U46C G68U	0.719
U47G C85U	1.21
U47C C63A	0.739
C48A U72C	0.519
C49G C57G	0.997
U47A C62U	1.03
U47C C57G	0.677
U47C C57A	0.875

Variant	self-cleavage
U46C C86G	0.852
U47C A77C	0.317
U47C C84A	0.554
U47G G52A	0.978
U47G G52C	0.895
C48A C86G	1.04
U47A A83G	0.734
U46G U47G	0.262
U46C A56C	0.609
U47C C86U	0.712
C49U G50U	0.941
U46C A70G	1.03
U47A A78U	0.295
U47A A78G	0.831
U47A C49A	0.886
C48U G53U	0.923
C49A C57G	0.898
U47A C63U	1
C49A U79A	1.05
C49A A51C	0.297
C49A A51G	0.748
U47A C48U	0.923
C48A A78C	0.169
C48A A78G	0.776

Variant	self-cleavage
C48A A78U	0.242
C49A A78G	0.665
U47G U72G	0.623
C48A U69A	0.814
C48A U69C	0.892
C48A U69G	0.997
U46C C75A	0.0536
U46C C75U	0.0755
C48A A56U	1.03
U47A A77U	0.516
U47A A77C	0
C49A A87G	0.839
C49A A87C	0.95
C48U G76U	1.15
C48U G76A	1.08
U47G C64G	0.485
U46G G67U	0.302
C48A C49A	1.16
C48A C49U	1.23
C49G G81A	0.361
C49G G81U	0.205
U46G A77C	0.0875
C48G G80U	0.244
U46G U72A	0.266

Variant	self-cleavage
C49G G74U	0.219
C49G G74C	0.192
U47G G54C	0.928
U47G A71G	1.11
C49A C61A	0.759
C49A C61U	0.789
U47A G53C	1.19
U47A G53U	0.755
U46G C48U	0.751
U47A A71U	0.657
U47A A71C	0.85
C49A C75A	0.156
C48A G80A	0.293
U46G G74C	0.201
U47C C66G	1.17
C48G G82C	0.111
C48G G82U	0.284
C48U G50A	0.888
U46C C58G	0.582
U47G U69G	0.776
C49A A70G	0.689
C48G A87G	0.975
C48G A87C	1.08
U46A C58G	0.712

Variant	self-cleavage
C49U A83U	0.391
U46A G81C	0.312
U46C G76C	0.415
C48A G53C	1.2
U47G C63G	0.415
U47G C58G	0.831
U47G C66A	0.969
C49G G82C	0.16
C49G G82U	0.123
C48U G81U	0.327
C49A G73A	0.314
C48G A78U	0.142
U47C G50U	0.733
U47C G50C	0.831
C49G C63A	0.489
U47A G68A	1.09
U47A G68U	0.944
C48G C86G	1.11
U46A G76C	0.665
C49A A83U	0.719
C49G G54A	0.332
C49G G54C	0.762
C49U A87G	0.959
C49U A87U	0.939

Variant	self-cleavage
C48U A77U	0.356
U46C C63G	0.72
C49U C62U	1.17
U47A G55C	1.15
U47A G59U	0.933
U46C G80A	0.185
U47G A51U	1.2
U47G A51G	0.906
U47G A51C	1.13
C48A G55A	0.972
U46C G50C	0.932
U46C G50A	0.698
C49G	0.905
C49U	0.96
C49A	0.965
U47C A83U	0.378
U47C A83C	0.554
U46A G55C	0.682
U46A G55U	0.85
U47A C75A	0.138
U47A C75U	0.203
U46A C57G	0.617
